The record followed here is US20140274782A1, “AFFINITY REAGENTS AND METHODS FOR DETECTION, PURIFICATION, AND PROTEOMIC ANALYSIS OF METHYLATED PROTEINS” (The Board of Trustees of the Leland Stanford Junior …, priority 2013, published 2014).

The test system of assay [1] is 3×MBT domain of L3MBTL1. Put plainly: Triple SILAC pull-down, 3xMBT/3xMBTD355N ratio (cytoplasmic, nuclear and chromatin fractions of 293T cells).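 As to all read-outs here: proteins quantified with MaxQuant, requiring at least two unique peptides and quantification in both label directions, normalized to the mean of proteins from a digested loading control.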 The class given is binding, human. Particulars: SILAC ratio 3xMBT vs 3xMBTD355N pull-down, 293T cells, all values in log base 2; for 3xMBT/D355N UNC Heavy: experiment with UNC0638 in heavy SILAC media; for 3xMBT/D355N UNC Light: experiment with UNC0638 in light SILAC media.

Assay [2] deals with T1, G9a and GLP (Homo sapiens, UniProt Q96KQ7+Q9H9B1).
T1 sequence (Q96KQ7 2-1210 limits assumed): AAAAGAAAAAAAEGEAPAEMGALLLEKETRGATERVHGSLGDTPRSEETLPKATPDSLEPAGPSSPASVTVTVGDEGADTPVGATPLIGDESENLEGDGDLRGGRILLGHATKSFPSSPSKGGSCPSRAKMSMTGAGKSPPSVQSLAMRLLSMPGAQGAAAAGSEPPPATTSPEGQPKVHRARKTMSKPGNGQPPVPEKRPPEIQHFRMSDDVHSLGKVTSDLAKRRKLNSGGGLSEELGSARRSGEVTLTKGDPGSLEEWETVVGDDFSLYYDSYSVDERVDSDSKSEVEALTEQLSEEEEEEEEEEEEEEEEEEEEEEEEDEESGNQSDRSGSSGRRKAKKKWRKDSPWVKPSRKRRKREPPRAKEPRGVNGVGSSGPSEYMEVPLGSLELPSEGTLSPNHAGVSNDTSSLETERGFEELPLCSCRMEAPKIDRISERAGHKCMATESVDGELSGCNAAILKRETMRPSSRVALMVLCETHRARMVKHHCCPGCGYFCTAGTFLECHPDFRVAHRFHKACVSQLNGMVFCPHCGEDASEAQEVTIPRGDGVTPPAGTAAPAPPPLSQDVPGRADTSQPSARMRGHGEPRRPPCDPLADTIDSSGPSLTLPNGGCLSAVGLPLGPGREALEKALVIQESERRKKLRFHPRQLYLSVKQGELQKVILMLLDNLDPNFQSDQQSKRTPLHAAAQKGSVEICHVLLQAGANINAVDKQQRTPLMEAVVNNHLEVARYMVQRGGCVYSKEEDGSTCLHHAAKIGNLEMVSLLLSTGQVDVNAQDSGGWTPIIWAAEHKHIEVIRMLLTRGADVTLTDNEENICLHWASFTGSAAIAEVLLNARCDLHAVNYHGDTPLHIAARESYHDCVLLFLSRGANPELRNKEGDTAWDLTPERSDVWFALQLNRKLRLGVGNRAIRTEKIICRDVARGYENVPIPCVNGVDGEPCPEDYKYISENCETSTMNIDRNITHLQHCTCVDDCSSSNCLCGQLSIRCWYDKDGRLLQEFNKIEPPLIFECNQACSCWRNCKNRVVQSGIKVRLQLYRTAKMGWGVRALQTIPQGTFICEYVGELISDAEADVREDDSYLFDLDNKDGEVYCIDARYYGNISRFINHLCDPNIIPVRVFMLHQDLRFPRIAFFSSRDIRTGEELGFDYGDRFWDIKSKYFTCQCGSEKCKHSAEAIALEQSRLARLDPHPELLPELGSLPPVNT
T1 sequence (Q9H9B1 2-1298 limits assumed): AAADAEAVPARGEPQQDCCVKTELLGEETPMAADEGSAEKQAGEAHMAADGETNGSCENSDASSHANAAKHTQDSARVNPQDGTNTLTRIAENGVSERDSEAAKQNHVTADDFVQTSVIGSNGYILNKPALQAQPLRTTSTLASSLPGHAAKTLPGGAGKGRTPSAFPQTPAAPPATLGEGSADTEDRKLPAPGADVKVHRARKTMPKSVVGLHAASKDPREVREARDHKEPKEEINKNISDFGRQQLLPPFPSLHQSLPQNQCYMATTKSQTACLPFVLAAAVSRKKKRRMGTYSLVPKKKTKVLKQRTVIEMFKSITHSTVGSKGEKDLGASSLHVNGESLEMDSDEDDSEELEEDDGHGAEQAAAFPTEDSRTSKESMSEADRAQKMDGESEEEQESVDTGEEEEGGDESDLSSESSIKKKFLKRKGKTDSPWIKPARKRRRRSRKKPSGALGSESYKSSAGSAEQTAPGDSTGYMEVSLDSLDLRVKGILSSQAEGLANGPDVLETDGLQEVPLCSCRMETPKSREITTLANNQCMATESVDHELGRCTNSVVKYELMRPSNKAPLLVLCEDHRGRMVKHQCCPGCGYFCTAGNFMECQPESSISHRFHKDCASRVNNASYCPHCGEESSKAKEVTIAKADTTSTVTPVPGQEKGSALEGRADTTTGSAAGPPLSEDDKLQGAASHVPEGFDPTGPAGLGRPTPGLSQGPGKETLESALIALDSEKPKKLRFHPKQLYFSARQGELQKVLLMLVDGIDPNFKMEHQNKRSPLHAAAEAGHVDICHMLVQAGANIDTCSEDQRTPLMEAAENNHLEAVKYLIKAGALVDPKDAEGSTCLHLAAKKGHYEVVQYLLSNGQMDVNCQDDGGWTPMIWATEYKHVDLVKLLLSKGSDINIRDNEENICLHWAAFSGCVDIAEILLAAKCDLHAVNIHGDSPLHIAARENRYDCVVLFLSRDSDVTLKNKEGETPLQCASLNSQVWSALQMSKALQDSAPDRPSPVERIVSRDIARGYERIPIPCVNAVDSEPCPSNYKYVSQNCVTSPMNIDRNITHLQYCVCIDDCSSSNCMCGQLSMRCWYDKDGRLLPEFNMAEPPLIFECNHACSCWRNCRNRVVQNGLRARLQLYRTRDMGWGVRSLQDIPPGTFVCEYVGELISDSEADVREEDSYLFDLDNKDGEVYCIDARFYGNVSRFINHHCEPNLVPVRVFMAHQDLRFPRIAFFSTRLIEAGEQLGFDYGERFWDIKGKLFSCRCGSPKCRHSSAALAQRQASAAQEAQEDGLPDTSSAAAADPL
Put plainly: Triple SILAC pull-down after UNC0638 treatment of 293T cells, DMSO/UNC0638 ratio of protein captured by 3×MBT.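 As to all read-outs here: mass spectrometry (Q-Exactive) SILAC quantitation, DMSO/UNC0638 ratio computed after subtracting 3×MBTD355N mutant pull-down background, only proteins with at least twofold 3×MBT over mutant signal considered.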 Also noted: endogenous in cells; host or cells: HEK 293T. Particulars: all values in log base 2; for Relative to UNC0638 UNC Heavy / Relative to UNC0638 UNC Light: SILAC ratio DMSO relative to UNC0638, pull-down with 3xMBT; for Relative to UNC0638 UNC Heavy: UNC0638 in heavy SILAC media; for Relative to UNC0638 UNC Light: UNC0638 in light SILAC media; for Relative to UNC0638 Average: average of UNC Light and UNC Heavy experiments. The format is cell-based.

B1: GTPBP1 (protein, UniProt O00178 1-669, looked up)
GTP-binding protein 1: MATERSRSAMDSPVPASMFAPEPSSPGAARAAAAAARLHGGFDSDCSEDGEALNGEPELDLTSKLVLVSPTSEQYDSLLRQMWERMDEGCGETIYVIGQGSDGTEYGLSEADMEASYATVKSMAEQIEADVILLRERQEAGGRVRDYLVRKRVGDNDFLEVRVAVVGNVDAGKSTLLGVLTHGELDNGRGFARQKLFRHKHEIESGRTSSVGNDILGFDSEGNVVNKPDSHGGSLEWTKICEKSTKVITFIDLAGHEKYLKTTVFGMTGHLPDFCMLMVGSNAGIVGMTKEHLGLALALNVPVFVVVTKIDMCPANILQETLKLLQRLLKSPGCRKIPVLVQSKDDVIVTASNFSSERMCPIFQISNVTGENLDLLKMFLNLLSPRTSYREEEPAEFQIDDTYSVPGVGTVVSGTTLRGLIKLNDTLLLGPDPLGNFLSIAVKSIHRKRMPVKEVRGGQTASFALKKIKRSSIRKGMVMVSPRLNPQASWEFEAEILVLHHPTTISPRYQAMVHCGSIRQTATILSMDKDCLRTGDKATVHFRFIKTPEYLHIDQRLVFREGRTKAVGTITKLLQTTNNSPMNSKPQQIKMQSTKKGPLTKRDEGGPSGGPAVGAPPPGDEASSVGAGQPAASSNLQPQPKPSSGGRRRGGQRHKVKSQGACVTPASGC
B1: in assay [1], the “3xMBT/D355N UNC Heavy” value is on record as −0.64 log base 2 and the “3xMBT/D355N UNC Light” value was 1.80 log base 2. In assay [2], the “Relative to UNC0638 UNC Heavy” value is −0.27 log base 2, the “Relative to UNC0638 UNC Light” value came out at 0.13 log base 2 and the “Relative to UNC0638 Average” value is recorded as −0.07 log base 2.

B2: DDX49 (protein, UniProt Q9Y6V7 1-483, looked up)
Probable ATP-dependent RNA …: MAGFAELGLSSWLVEQCRQLGLKQPTPVQLGCIPAILEGRDCLGCAKTGSGKTAAFVLPILQKLSEDPYGIFCLVLTPTRELAYQIAEQFRVLGKPLGLKDCIIVGGMDMVAQALELSRKPHVVIATPGRLADHLRSSNTFSIKKIRFLVMDEADRLLEQGCTDFTVDLEAILAAVPARRQTLLFSATLTDTLRELQGLATNQPFFWEAQAPVSTVEQLDQRYLLVPEKVKDAYLVHLIQRFQDEHEDWSIIIFTNTCKTCQILCMMLRKFSFPTVALHSMMKQKERFAALAKFKSSIYRILIATDVASRGLDIPTVQVVINHNTPGLPKIYIHRVGRTARAGRQGQAITLVTQYDIHLVHAIEEQIKKKLEEFSVEEAEVLQILTQVNVVRRECEIKLEAAHFDEKKEINKRKQLILEGKDPDLEAKRKAELAKIKQKNRRFKEKVEETLKRQKAGRAGHKGRPPRTPSGSHSGPVPSQGLV
For B2, in assay [1], the “3xMBT/D355N UNC Heavy” value was found to be 3.17 log base 2 and the “3xMBT/D355N UNC Light” value amounted to 1.77 log base 2. Also, in assay [2], the “Relative to UNC0638 UNC Heavy” value was determined as 0.43 log base 2, the “Relative to UNC0638 UNC Light” value was −0.49 log base 2 and the “Relative to UNC0638 Average” value was −0.03 log base 2.

B3: SMC1A (protein, UniProt Q14683 1-1233, looked up)
Structural maintenance of …: MGFLKLIEIENFKSYKGRQIIGPFQRFTAIIGPNGSGKSNLMDAISFVLGEKTSNLRVKTLRDLIHGAPVGKPAANRAFVSMVYSEEGAEDRTFARVIVGGSSEYKINNKVVQLHEYSEELEKLGILIKARNFLVFQGAVESIAMKNPKERTALFEEISRSGELAQEYDKRKKEMVKAEEDTQFNYHRKKNIAAERKEAKQEKEEADRYQRLKDEVVRAQVQLQLFKLYHNEVEIEKLNKELASKNKEIEKDKKRMDKVEDELKEKKKELGKMMREQQQIEKEIKEKDSELNQKRPQYIKAKENTSHKIKKLEAAKKSLQNAQKHYKKRKGDMDELEKEMLSVEKARQEFEERMEEESQSQGRDLTLEENQVKKYHRLKEEASKRAATLAQELEKFNRDQKADQDRLDLEERKKVETEAKIKQKLREIEENQKRIEKLEEYITTSKQSLEEQKKLEGELTEEVEMAKRRIDEINKELNQVMEQLGDARIDRQESSRQQRKAEIMESIKRLYPGSVYGRLIDLCQPTQKKYQIAVTKVLGKNMDAIIVDSEKTGRDCIQYIKEQRGEPETFLPLDYLEVKPTDEKLRELKGAKLVIDVIRYEPPHIKKALQYACGNALVCDNVEDARRIAFGGHQRHKTVALDGTLFQKSGVISGGASDLKAKARRWDEKAVDKLKEKKERLTEELKEQMKAKRKEAELRQVQSQAHGLQMRLKYSQSDLEQTKTRHLALNLQEKSKLESELANFGPRINDIKRIIQSREREMKDLKEKMNQVEDEVFEEFCREIGVRNIREFEEEKVKRQNEIAKKRLEFENQKTRLGIQLDFEKNQLKEDQDKVHMWEQTVKKDENEIEKLKKEEQRHMKIIDETMAQLQDLKNQHLAKKSEVNDKNHEMEEIRKKLGGANKEMTHLQKEVTAIETKLEQKRSDRHNLLQACKMQDIKLPLSKGTMDDISQEEGSSQGEDSVSGSQRISSIYAREALIEIDYGDLCEDLKDAQAEEEIKQEMNTLQQKLNEQQSVLQRIAAPNMKAMEKLESVRDKFQETSDEFEAARKRAKKAKQAFEQIKKERFDRFNACFESVATNIDEIYKALSRNSSAQAFLGPENPEEPYLDGINYNCVAPGKRFRPMDNLSGGEKTVAALALLFAIHSYKPAPFFVLDEIDAALDNTNIGKVANYIKEQSTCNFQAIVISLKEEFYTKAESLIGVYPEQGDCVISKVLTFDLTKYPDANPNPNEQ
As for B3, in assay [1], the “3xMBT/D355N UNC Heavy” value came out at 1.31 log base 2 and the “3xMBT/D355N UNC Light” value is on record as 1.83 log base 2. Further, in assay [2], the “Relative to UNC0638 UNC Heavy” value is −0.05 log base 2, the “Relative to UNC0638 UNC Light” value is on record as −0.01 log base 2 and the “Relative to UNC0638 Average” value is recorded as −0.03 log base 2.
